For two substances, stoichiometry N results are on record in publication PMC9574740.

Like-named read-outs stand apart in the source and are kept apart here.

Broadly, the stoichiometry N is a count of units in the complex or per binding partner.

Assay in all cases: crystal structure
Assay [1] concerns the target Chaetomium thermophilum Ahp1 C30S (Chaetomium thermophilum).
Assay [2] has the same target. This is another data set of the same source.
Assay [3] deals with Chaetomium thermophilum Ahp1, wild type (Chaetomium thermophilum).

As to “Chaetomium thermophilum Ahp1 C30S (enzyme)”, the stoichiometry N in assay [1] and in assay [2] was 2 in each case.

Take “Chaetomium thermophilum Ahp1, wild type (enzyme)”: in assay [3], the stoichiometry N stood at 2.
